Key:
[1] = molecular target: HLA-A*03:01; test: IEDB peptide-MHC binding, purified MHC/direct/fluorescence; filed as Kd, often an IC50 or EC50 that approximates it; ≥ and ≤ were set here for values at or beyond the usual limits of such assays; details: source organism: Cryptosporidium parvum Iowa II
[2] = molecular target: HLA-A*24:03; test: as above; details: source organism: Cryptosporidium parvum Iowa II
[3] = molecular target: HLA-A*02:11; test: as above; details: source organism: Cryptosporidium parvum Iowa II
[4] = molecular target: HLA-A*02:19; test: as above; details: source organism: Cryptosporidium parvum Iowa II
[5] = molecular target: HLA-A*29:02; test: as above; details: source organism: Cryptosporidium parvum Iowa II
[6] = molecular target: HLA-A*02:01; test: as above; details: source organism: Cryptosporidium parvum Iowa II
[7] = molecular target: HLA-B*15:01; test: as above; details: source organism: Cryptosporidium parvum Iowa II
[8] = molecular target: HLA-A*02:12; test: as above; details: source organism: Cryptosporidium parvum Iowa II
[9] = molecular target: HLA-C*05:01; test: as above; details: source organism: Cryptosporidium parvum Iowa II
[10] = molecular target: HLA-A*02:16; test: as above; details: source organism: Cryptosporidium parvum Iowa II
[11] = molecular target: HLA-A*23:01; test: as above; details: source organism: Cryptosporidium parvum Iowa II
[12] = molecular target: HLA-B*51:01; test: as above; details: source organism: Cryptosporidium parvum Iowa II
[13] = molecular target: HLA-B*27:03; test: as above; details: source organism: Cryptosporidium parvum Iowa II
[14] = molecular target: HLA-B*57:01; test: as above; details: source organism: Cryptosporidium parvum Iowa II
[15] = molecular target: HLA-A*02:03; test: as above; details: source organism: Cryptosporidium parvum Iowa II
[16] = molecular target: HLA-B*46:01; test: as above; details: source organism: Cryptosporidium parvum Iowa II
[17] = molecular target: HLA-A*26:01; test: as above; details: source organism: Cryptosporidium parvum Iowa II
[18] = molecular target: HLA-B*83:01; test: IEDB peptide-MHC binding, purified MHC/competitive/fluorescence; filed as Kd, often an IC50 or EC50 that approximates it; ≥ and ≤ were set here for values at or beyond the usual limits of such assays
[19] = molecular target: HLA-C*14:02; test: as above; details: source organism: Cryptosporidium parvum Iowa II
[20] = molecular target: HLA-B*45:06; test: as above
[21] = molecular target: HLA-A*68:23; test: as above; details: source organism: Cryptosporidium parvum Iowa II
[22] = molecular target: HLA-B*15:42; test: as above
[23] = molecular target: HLA-A*32:07; test: as above; details: source organism: Mycobacterium tuberculosis C
[24] = molecular target: HLA-C*08:02; test: IEDB peptide-MHC binding, purified MHC/direct/fluorescence; filed as Kd, often an IC50 or EC50 that approximates it; ≥ and ≤ were set here for values at or beyond the usual limits of such assays; details: source organism: Hylobates lar
[25] = molecular target: HLA-A*68:02; test: IEDB peptide-MHC binding, purified MHC/competitive/fluorescence; ≥ and ≤ were set here for values at or beyond the usual limits of such assays; details: source organism: Monodelphis domestica
[26] = molecular target: HLA-A*02:01; test: as above; details: source organism: Monodelphis domestica
[27] = source organism: Cryptosporidium parvum Iowa II
[28] = source organism: Mycobacterium tuberculosis C

MPMSMPIPM was tested, and the Kd [1] was ≥ 20 µM, the Kd [2] was ≥ 20 µM and the Kd [3] was ≥ 20 µM. For the same sequence, the Kd [4] was ≥ 20 µM, the Kd [5] was ≥ 20 µM and the Kd [6] was ≥ 20 µM. For the same sequence, the Kd [7] was ≥ 20 µM, the Kd [8] was ≥ 20 µM and the Kd [9] was ≥ 20 µM. For the same sequence, the Kd [10] was ≥ 20 µM, the Kd [11] was ≥ 20 µM and the Kd [12] was 5.84 µM. The Kd [13] was ≥ 20 µM, the Kd [14] was ≥ 20 µM and the Kd [15] was ≥ 20 µM. The Kd [16] was ≥ 20 µM, the Kd [17] was ≥ 20 µM and the Kd [18, 27] was 0.0395 µM. For the same sequence, the Kd [19] was 0.125 µM, the Kd [20, 27] was ≥ 5 µM and the Kd [21] was 0.0027 µM. For the same sequence, the Kd [22, 27] was ≥ 5 µM.
For RIRAANLPI, the Kd [18, 28] was ≥ 5 µM, the Kd [20, 28] was ≥ 5 µM and the Kd [22, 28] was ≥ 5 µM. For the same sequence, the Kd [23] was 0.0333 µM.
YSLEYFQFV was tested, and the Kd [24] was ≥ 20 µM, the IC50 [25] was 0.106 µM and the IC50 [26] was 0.0592 µM.

Source: the Immune Epitope Database (IEDB)
